Source: the supplement of paper PMC9112550, “Optimization of the antimicrobial peptide Bac7 by deep mutational scanning” (BMC Biology, 2022)

System: Escherichia coli TOP10
Assay: shrunken log2 fold change of peptide-encoding DNA abundance (4.5 h post-induction vs induction); higher = less antimicrobial activity (less host growth inhibition)
Conditions: time post-induction: 4.5 h; library: site-saturation at positions 5, 18, 19, 20
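Further: peptides expressed intracellularly from a pBAD plasmid library in pooled LB shake-flask culture, induced with 0.3% L-arabinose, DNA abundance read by NGS, three biological replicates, DESeq2 with apeglm shrinkage.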

Sequence: RRIRDRPPRLPRPRPRPCWLPRP
- shrunken log2 fold change: 0.127

Sequence: RRIRMRPPRLPRPRPRPLSYPRP
- shrunken log2 fold change: 0.134

Sequence: RRIRWRPPRLPRPRPRPEWQPRP
- shrunken log2 fold change: 0.0276

Sequence: RRIRYRPPRLPRPRPRPEKPPRP
- shrunken log2 fold change: -0.00145

Sequence: RRIRYRPPRLPRPRPRPWDRPRP
- shrunken log2 fold change: -0.103

Sequence: RRIRNRPPRLPRPRPRPHPDPRP
- shrunken log2 fold change: -0.15

Sequence: RRIRMRPPRLPRPRPRPHTFPRP
- shrunken log2 fold change: -0.384

Sequence: RRIRRRPPRLPRPRPRPCRNPRP
- shrunken log2 fold change: 0.0376

Sequence: RRIRPRPPRLPRPRPRPVRSPRP
- shrunken log2 fold change: 0.371

Sequence: RRIRNRPPRLPRPRPRPHAAPRP
- shrunken log2 fold change: 0.545

Sequence: RRIRIRPPRLPRPRPRPPLAPRP
- shrunken log2 fold change: 0.293

Sequence: RRIRMRPPRLPRPRPRPNNPPRP
- shrunken log2 fold change: 0.395

Sequence: RRIRSRPPRLPRPRPRPERKPRP
- shrunken log2 fold change: -0.0872

Sequence: RRIRCRPPRLPRPRPRPYCKPRP
- shrunken log2 fold change: -0.894

Sequence: RRIRKRPPRLPRPRPRPHYDPRP
- shrunken log2 fold change: 0.0324

Sequence: RRIRDRPPRLPRPRPRPINCPRP
- shrunken log2 fold change: -0.0287

Sequence: RRIRFRPPRLPRPRPRPIRAPRP
- shrunken log2 fold change: -0.0742

Sequence: RRIRARPPRLPRPRPRPGFMPRP
- shrunken log2 fold change: 0.14

Sequence: RRIRRRPPRLPRPRPRPTARPRP
- shrunken log2 fold change: 0.494

Sequence: RRIRLRPPRLPRPRPRPVELPRP
- shrunken log2 fold change: 0.0718

Sequence: RRIRIRPPRLPRPRPRPWFYPRP
- shrunken log2 fold change: -0.161

Sequence: RRIRNRPPRLPRPRPRPMWVPRP
- shrunken log2 fold change: 0.0358

Sequence: RRIRTRPPRLPRPRPRPKIFPRP
- shrunken log2 fold change: -0.219

Sequence: RRIRQRPPRLPRPRPRPWGPPRP
- shrunken log2 fold change: 0.0893

Sequence: RRIRDRPPRLPRPRPRPVDNPRP
- shrunken log2 fold change: 0.0262

Sequence: RRIRQRPPRLPRPRPRPMCNPRP
- shrunken log2 fold change: -0.389

Sequence: RRIRWRPPRLPRPRPRPFEFPRP
- shrunken log2 fold change: -0.182

Sequence: RRIRFRPPRLPRPRPRPEWEPRP
- shrunken log2 fold change: 0.00489

Sequence: RRIRRRPPRLPRPRPRPTHYPRP
- shrunken log2 fold change: 1.2

Sequence: RRIRNRPPRLPRPRPRPLHIPRP
- shrunken log2 fold change: -0.363

Sequence: RRIRCRPPRLPRPRPRPKGLPRP
- shrunken log2 fold change: -0.134

Sequence: RRIRERPPRLPRPRPRPVAGPRP
- shrunken log2 fold change: 0.246

Sequence: RRIRNRPPRLPRPRPRPNRIPRP
- shrunken log2 fold change: -0.233

Sequence: RRIRLRPPRLPRPRPRPVNGPRP
- shrunken log2 fold change: -0.0366

Sequence: RRIRVRPPRLPRPRPRPWMVPRP
- shrunken log2 fold change: -0.208

Sequence: RRIRHRPPRLPRPRPRPPWRPRP
- shrunken log2 fold change: 0.538

Sequence: RRIRHRPPRLPRPRPRPKEEPRP
- shrunken log2 fold change: -0.0523

Sequence: RRIRCRPPRLPRPRPRPWHQPRP
- shrunken log2 fold change: -0.0304

Sequence: RRIRNRPPRLPRPRPRPEEVPRP
- shrunken log2 fold change: -0.00192

Sequence: RRIRVRPPRLPRPRPRPGIAPRP
- shrunken log2 fold change: 0.0106

Sequence: RRIRNRPPRLPRPRPRPGNHPRP
- shrunken log2 fold change: -0.265

Sequence: RRIRIRPPRLPRPRPRPELPPRP
- shrunken log2 fold change: 0.0135

Sequence: RRIRIRPPRLPRPRPRPGGYPRP
- shrunken log2 fold change: -0.16

Sequence: RRIRQRPPRLPRPRPRPQQFPRP
- shrunken log2 fold change: 0.0507

Sequence: RRIRLRPPRLPRPRPRPVVPPRP
- shrunken log2 fold change: 0.139

Sequence: RRIRVRPPRLPRPRPRPRCRPRP
- shrunken log2 fold change: -0.0394

Sequence: RRIRCRPPRLPRPRPRPFVQPRP
- shrunken log2 fold change: -0.86

Sequence: RRIRTRPPRLPRPRPRPYFCPRP
- shrunken log2 fold change: -0.0855

Sequence: RRIRGRPPRLPRPRPRPRERPRP
- shrunken log2 fold change: 0.789

Sequence: RRIRPRPPRLPRPRPRPPMTPRP
- shrunken log2 fold change: 0.0831

Sequence: RRIRDRPPRLPRPRPRPYAFPRP
- shrunken log2 fold change: -0.187

Sequence: RRIRWRPPRLPRPRPRPSKDPRP
- shrunken log2 fold change: -0.412

Sequence: RRIRGRPPRLPRPRPRPEDEPRP
- shrunken log2 fold change: 0.0631

Sequence: RRIRPRPPRLPRPRPRPNNRPRP
- shrunken log2 fold change: -0.349

Sequence: RRIRRRPPRLPRPRPRPGLEPRP
- shrunken log2 fold change: 0.472

Sequence: RRIRQRPPRLPRPRPRPMQIPRP
- shrunken log2 fold change: 0.0201

Sequence: RRIRMRPPRLPRPRPRPKDQPRP
- shrunken log2 fold change: 2.28

Sequence: RRIRGRPPRLPRPRPRPGRYPRP
- shrunken log2 fold change: -0.378

Sequence: RRIRNRPPRLPRPRPRPFNMPRP
- shrunken log2 fold change: -0.149

Sequence: RRIRLRPPRLPRPRPRPWLIPRP
- shrunken log2 fold change: -0.00228

Sequence: RRIRLRPPRLPRPRPRPCSDPRP
- shrunken log2 fold change: 0.0181

Sequence: RRIRCRPPRLPRPRPRPWNIPRP
- shrunken log2 fold change: 0.0152

Sequence: RRIRERPPRLPRPRPRPQFFPRP
- shrunken log2 fold change: -0.0736

Sequence: RRIRHRPPRLPRPRPRPHCIPRP
- shrunken log2 fold change: -0.199

Sequence: RRIRNRPPRLPRPRPRPVQKPRP
- shrunken log2 fold change: -0.0122

Sequence: RRIRYRPPRLPRPRPRPYNHPRP
- shrunken log2 fold change: -1.5

Sequence: RRIRYRPPRLPRPRPRPKCEPRP
- shrunken log2 fold change: -0.0192

Sequence: RRIRNRPPRLPRPRPRPPLTPRP
- shrunken log2 fold change: 0.0501

Sequence: RRIRLRPPRLPRPRPRPRQYPRP
- shrunken log2 fold change: -0.075

Sequence: RRIRWRPPRLPRPRPRPLKTPRP
- shrunken log2 fold change: 0.453

Sequence: RRIRHRPPRLPRPRPRPFLQPRP
- shrunken log2 fold change: 0.0325

Sequence: RRIRHRPPRLPRPRPRPCLIPRP
- shrunken log2 fold change: -0.11

Sequence: RRIRYRPPRLPRPRPRPVHTPRP
- shrunken log2 fold change: -0.562

Sequence: RRIRVRPPRLPRPRPRPNNLPRP
- shrunken log2 fold change: -0.534

Sequence: RRIRCRPPRLPRPRPRPMHKPRP
- shrunken log2 fold change: -0.203

Sequence: RRIRSRPPRLPRPRPRPVIQPRP
- shrunken log2 fold change: -0.178

Sequence: RRIRWRPPRLPRPRPRPNLMPRP
- shrunken log2 fold change: -0.227

Sequence: RRIRMRPPRLPRPRPRPLGPPRP
- shrunken log2 fold change: 0.716

Sequence: RRIRPRPPRLPRPRPRPMRTPRP
- shrunken log2 fold change: 0.357

Sequence: RRIRCRPPRLPRPRPRPYSSPRP
- shrunken log2 fold change: 0.00688

Sequence: RRIRRRPPRLPRPRPRPLPWPRP
- shrunken log2 fold change: 0.057

Sequence: RRIRLRPPRLPRPRPRPYEAPRP
- shrunken log2 fold change: -1.12

Sequence: RRIRHRPPRLPRPRPRPHGPPRP
- shrunken log2 fold change: 0.0873

Sequence: RRIRDRPPRLPRPRPRPSPAPRP
- shrunken log2 fold change: 0.0515

Sequence: RRIRGRPPRLPRPRPRPAQWPRP
- shrunken log2 fold change: 0.933

Sequence: RRIRYRPPRLPRPRPRPQDYPRP
- shrunken log2 fold change: -0.236

Sequence: RRIRMRPPRLPRPRPRPHPDPRP
- shrunken log2 fold change: -0.0902

Sequence: RRIRIRPPRLPRPRPRPNHKPRP
- shrunken log2 fold change: -0.857

Sequence: RRIRKRPPRLPRPRPRPNRGPRP
- shrunken log2 fold change: 0.0385

Sequence: RRIRFRPPRLPRPRPRPRIKPRP
- shrunken log2 fold change: -0.168

Sequence: RRIRRRPPRLPRPRPRPWPFPRP
- shrunken log2 fold change: -0.0442
